Laboratory results published in patent US20030158387A1 (PHARIS BIOTEC, published 2003).
Read-outs that look alike come from different tables or passages of the source. *: point of attachment. Nonanoyl = CCCCCCCCC(=O)*

T1: chemokine receptor CCR3 (UniProt P51677 1-355, limits assumed)
T1 construct: whole, on cells
T1 sequence (looked up): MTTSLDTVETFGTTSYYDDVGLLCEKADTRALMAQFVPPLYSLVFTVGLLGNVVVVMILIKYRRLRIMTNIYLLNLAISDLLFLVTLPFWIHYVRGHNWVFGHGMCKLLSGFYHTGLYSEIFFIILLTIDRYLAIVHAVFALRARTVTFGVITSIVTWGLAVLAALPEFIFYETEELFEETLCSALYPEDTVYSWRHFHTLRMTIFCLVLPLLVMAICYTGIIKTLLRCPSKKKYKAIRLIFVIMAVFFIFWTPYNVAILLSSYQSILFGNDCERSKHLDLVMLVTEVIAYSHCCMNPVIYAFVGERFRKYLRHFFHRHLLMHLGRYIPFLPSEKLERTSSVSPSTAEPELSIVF

B1: processed human chemokine PHC-1 (HCC-1[9-74]) (ligand)
chain: GPYHPSECCFTYTTYKIPRQRIMDYYETNSQCSKPGIVFITKRGHSVCTNPSDKWVQDYIKDMKEN
notes: Purified from human hemofiltrate or made by tryptic digestion of HCC-1 (1-74)
B2: RANTES (ligand, UniProt P13501 24-91, looked up)
chain: SPYSSDTTPCCFAYIARPLPRAHIKEYFYTSGKCSNPAVVFVTRKNRQVCANPEKKWVREYINSLEMS
modifications: ends and bridges not checked; also: 125I-labelled where used as tracer, unlabelled in functional assays
B3: HCC-1, residues 6-74 (ligand)
chain: SSRGPYHPSECCFTYTTYKIPRQRIMDYYETNSQCSKPGIVFITKRGHSVCTNPSDKWVQDYIKDMKEN
notes: also called HCC-1[6-74]
B4: HCC-1[7-74] (ligand)
chain: SRGPYHPSECCFTYTTYKIPRQRIMDYYETNSQCSKPGIVFITKRGHSVCTNPSDKWVQDYIKDMKEN
notes: Synthetic, oxidatively folded
B5: HCC-1[8-74] (ligand)
chain: RGPYHPSECCFTYTTYKIPRQRIMDYYETNSQCSKPGIVFITKRGHSVCTNPSDKWVQDYIKDMKEN
notes: Synthetic, oxidatively folded
B6: HCC-1[10-74] (ligand)
chain: PYHPSECCFTYTTYKIPRQRIMDYYETNSQCSKPGIVFITKRGHSVCTNPSDKWVQDYIKDMKEN
notes: Synthetic, oxidatively folded
B7: HCC-1[11-74] (ligand)
chain: YHPSECCFTYTTYKIPRQRIMDYYETNSQCSKPGIVFITKRGHSVCTNPSDKWVQDYIKDMKEN
notes: Synthetic, oxidatively folded
B8: NNY-HCC-1[10-74] (nonanoyl-HCC-1[10-74]) (ligand)
chain: Nonanoyl-PYHPSECCFTYTTYKIPRQRIMDYYETNSQCSKPGIVFITKRGHSVCTNPSDKWVQDYIKDMKEN
modifications: ends and bridges not checked
notes: Chemokine compound analog, synthetic
B9: HCC-1[12-74] (ligand)
chemokine chain: HPSECCFTYTTYKIPRQRIMDYYETNSQCSKPGIVFITKRGHSVCTNPSDKWVQDYIKDMKEN
notes: Not in the list MOLECULES; also called PHC-2

Legend:
[1] = molecular target: T2, chemokine receptor 5 (CCR5) (human, UniProt P51681 1-352); assay: competition radioligand binding, membranes of CHO-K1 cells expressing CCR5, tracer [125I]-MIP-1 beta
T2 construct: whole, on cells
T2 sequence (P51681 whole entry): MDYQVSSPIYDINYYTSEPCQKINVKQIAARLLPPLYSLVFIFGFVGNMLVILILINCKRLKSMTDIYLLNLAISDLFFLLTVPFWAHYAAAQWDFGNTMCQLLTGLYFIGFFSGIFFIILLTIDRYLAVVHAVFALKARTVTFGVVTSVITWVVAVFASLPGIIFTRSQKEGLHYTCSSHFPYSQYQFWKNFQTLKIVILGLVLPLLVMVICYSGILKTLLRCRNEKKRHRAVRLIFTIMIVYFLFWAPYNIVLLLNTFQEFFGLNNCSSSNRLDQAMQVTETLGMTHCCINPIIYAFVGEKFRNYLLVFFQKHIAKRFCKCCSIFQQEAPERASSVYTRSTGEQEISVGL

chemokine receptor CCR3 [2] = molecular target: T1, chemokine receptor CCR3; assay: competition with 125I-Eotaxin for binding to CCR3
Protocol: (§1) For determination of its binding properties, CHO-K1 cells were used which were stably transfected with the chemokine receptors CCR1, CCR3, CCR5. Therefore, crude membrane extracts prepared from the CHO-K1 cell lines expressing the various GPC were used in radioligand binding assays. Competition binding assays were performed in Minisorp tubes (Nunc, Roskilde, Denmark) in a total volume of 100 μl containing 0.11 nM iodinated ligand as tracer, variable concentrations of competitors and defined amount of membranes. Total binding was measured in the absence of competitor and non-specific binding was measured with a 100-fold excess, of unlabelled ligand. Samples were incubated for 90 minutes at 25° C. then filtered through GF/B filters presoaked in 0.3% polyethylenenimine. Filters were counted in a gamma scintillation counter (Packard). Binding parameters were determined with the PRISM software (Graphpad software, San Diego, Calif.) using non-linear regression applied to a one site competition model.

[3] = molecular target: T2, chemokine receptor 5 (CCR5); assay: competition radioligand binding, membranes of CHO-K1 cells expressing CCR5, tracer [125I]-MIP-1 beta; mean ± SEM
[4] = molecular target: T2, chemokine receptor 5 (CCR5); assay: competition with 125I-MIP-1 alpha for binding to CCR5
Protocol: as §1

[5] = molecular target: T2, chemokine receptor 5 (CCR5); assay: cell-based or functional assay
chemokine receptor CCR3 [6] = molecular target: T1, chemokine receptor CCR3; assay: cell-based or functional assay
chemokine receptor CCR3 [7] = molecular target: T1, chemokine receptor CCR3; assay: competition with 125I-Eotaxin, membranes of CHO-K1 cells expressing CCR3, filtration, one site competition model; 125I-Eotaxin tracer, CCR3 membranes
Protocol: as §1

[8] = molecular target: T2, chemokine receptor 5 (CCR5); assay: competition with 125I-MIP-1 alpha, membranes of CHO-K1 cells expressing CCR5, filtration, one site competition model; 125I-MIP 1-alpha tracer, CCR5 membranes
Protocol: as §1

[9] = molecular target: T2, chemokine receptor 5 (CCR5); assay: cell-based or functional assay; remark: listed apart in the source
[10] = molecular target: T2, chemokine receptor 5 (CCR5); assay: cell-based or functional assay; remark: listed apart in the source
[11] = molecular target: T2, chemokine receptor 5 (CCR5); assay: competition radioligand binding, membranes of CHO-K1 cells expressing CCR5, tracer [125I]-MIP-1 beta; remark: listed apart in the source

Binder	IC50 (read off the curve) [1] [nM]	IC50 [3] [nM]	EC50 (aequorin luminescence, CHO-K1 cells expressing CCR5) [5] [nM]	EC50 (read off the curve) [9] [nM]	EC50 (read off the curve) [10] [nM]	IC50 (read off the curve) [11] [nM]	further results
B1	~0.1	0.0961	6.45	~7	~7	~0.1	Ki (chemokine receptor CCR3 [2]): 2.7 nM; Ki [4]: 0.04 nM; EC50 of receptor activation (aequorin assay) (chemokine receptor CCR3 [6]): 78 nM; IC50 (chemokine receptor CCR3 [7]): 2.7 nM; IC50 [8]: 0.04 nM
B2			8.48	~10	~10		
B3		21.6	402			~20	
B4		7.72	165				
B5		5.9	177				
B6	~0.1	0.065	3.48	~6	~6	~0.1	
B7		1.2	224				
B8	~0.04	0.0343	0.453		~1		
B9		4.29					
